These results are taken from article doi:10.1101/2022.08.10.503460 (bioRxiv, 2022).

The assay addresses Mouse Pcdh15 EC1-2 (mouse, UniProt Q99PJ1 27-259). The assay is described as follows: AFM force-clamp spectroscopy.

B1: Mouse Cdh23 EC1-2 (domain or fragment)
chain: QVNRLPFFTNHFFDTYLLISEDTPVGSSVTQLLARDMDNDPLVFGVSGEEASRFFAVEPDTGVVWLRQPLDRETKSEFTVEFSVSDHQGVITRKVNIQVGDVNDNAPTFHNQPYSVRIPENTPVGTPIFIVNATDPDLGAGGSVLYSFQPPSPFFAIDSARGIVTVIQELDYEVTQAYQLTVNATDQDKTRPLSTLANLAIIITD
As for B1, the koff stood at 0.2 s⁻¹.
